The text below walks through data of patent US20150344570A1 (published 2015).

Sequences and labels used below:
T1: FcγRIIb extracellular domain with C-terminal His tag (human, UniProt P31994 43-217)
T1 construct: extracellular domain; Soluble receptor expressed in FreeStyle293 cells and used as analyte in Biacore; also called FcgRIIb; 2b; not shown: His tag attached to the C terminus
T1 sequence (looked up): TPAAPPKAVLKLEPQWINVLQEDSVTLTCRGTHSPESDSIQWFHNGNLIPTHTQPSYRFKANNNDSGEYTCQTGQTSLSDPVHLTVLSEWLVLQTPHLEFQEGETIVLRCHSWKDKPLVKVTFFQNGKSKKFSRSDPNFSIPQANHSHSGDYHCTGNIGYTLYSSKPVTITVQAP

T2: FcγRIIa R (FcγRIIa allotype with Arg at position 131), extracellular domain with C-terminal His tag (human, UniProt P12318 34-217)
T2 construct: extracellular domain; made in FreeStyle293 cells; analyte in the Biacore assay; also called FcγRIIa type R; 2aR
T2 sequence (looked up): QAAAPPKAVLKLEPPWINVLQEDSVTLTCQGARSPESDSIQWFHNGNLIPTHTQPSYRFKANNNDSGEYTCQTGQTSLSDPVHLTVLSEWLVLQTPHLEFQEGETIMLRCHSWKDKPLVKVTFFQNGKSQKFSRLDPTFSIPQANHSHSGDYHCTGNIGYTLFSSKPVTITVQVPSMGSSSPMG

T3: FcγRIIb, extracellular domain with C-terminal His tag (human, UniProt P31994 43-217)
T3 construct: extracellular domain; made in FreeStyle293 cells; analyte in the Biacore assay; also called 2b; FcgRIIb
T3 sequence (looked up): T1 sequence (looked up)

B1: GpH7-A5/GpH7-B3 variant E269_16H/GpL16-k0 (antibody, human IgG1, kappa)
heavy 1: not shown
heavy 2: not shown
light: DIVMTQSPLSLPVTPGEPASISCQASESLVHSNRNTYLHWYLQKPGQSPQLLIYKVSNRFSGVPDRFSGSGSGTDFTLKISRVEAEDVGVYYCSQNTHVPPTFGQGTKVEIERTVAAPSVFIFPPSDEQLKSGTASVVCLLNNFYPREAKVQWKVDNALQSGNSQESVTEQDSKDSTYSLSSTLTLSKADYEKHKVYACEVTHQGLSSPVTKSFNRGEC
notes: Heterodimerized anti-glypican-3 IgG1 with the alteration in only one H chain; also called He Ab
B2: GpH7-A5/GpH7-B3 variant D270_18N/GpL16-k0 (antibody, human IgG1, kappa)
heavy 1: not shown
heavy 2: not shown
light: B1 light
notes: as for B1
B3: GpH7-A5/GpH7-B3 variant D270_11K/GpL16-k0 (antibody, human IgG1, kappa)
heavy 1: not shown
heavy 2: not shown
light: B1 light
notes: as for B1
B4: GpH7-A5/GpH7-B3 variant D270_06M/GpL16-k0 (antibody, human IgG1, kappa)
heavy 1: not shown
heavy 2: not shown
light: B1 light
notes: as for B1
B5: GpH7-A5/GpH7-B3 variant E269_12R/GpL16-k0 (antibody, human IgG1, kappa)
heavy 1: not shown
heavy 2: not shown
light: B1 light
notes: as for B1
B6: GpH7-A5/GpH7-B3 variant D270_03V/GpL16-k0 (antibody, human IgG1, kappa)
heavy 1: not shown
heavy 2: not shown
light: B1 light
notes: as for B1
B7: GpH7-A5/GpH7-B3 variant L234_19Q/GpL16-k0 (antibody, human IgG1, kappa)
heavy 1: not shown
heavy 2: not shown
light: B1 light
notes: heterodimerized IgG1, mutation in one H chain only; also called He Ab
B8: GpH7-A5/GpH7-B3 variant L235_01G/GpL16-k0 (antibody, human IgG1, kappa)
heavy 1: not shown
heavy 2: not shown
light: B1 light
notes: as for B7
B9: GpH7-A5/GpH7-B3 variant L235_14T/GpL16-k0 (antibody, human IgG1, kappa)
heavy 1: not shown
heavy 2: not shown
light: B1 light
notes: as for B7
B10: GpH7-A5/GpH7-B3 variant L235_13S/GpL16-k0 (antibody, human IgG1, kappa)
heavy 1: not shown
heavy 2: not shown
light: B1 light
notes: as for B7
B11: GpH7-A5/GpH7-B3 variant L235_18N/GpL16-k0 (antibody, human IgG1, kappa)
heavy 1: not shown
heavy 2: not shown
light: B1 light
notes: as for B7
B12: GpH7-A5/GpH7-B3 variant L235_19Q/GpL16-k0 (antibody, human IgG1, kappa)
heavy 1: not shown
heavy 2: not shown
light: B1 light
notes: as for B7
B13: GpH7-A5/GpH7-B3 variant L235_11K/GpL16-k0 (antibody, human IgG1, kappa)
heavy 1: not shown
heavy 2: not shown
light: B1 light
notes: as for B7
B14: GpH7-A5/GpH7-B3 variant L235_16H/GpL16-k0 (antibody, human IgG1, kappa)
heavy 1: not shown
heavy 2: not shown
light: B1 light
notes: as for B7

The target in the first assay is T4, FcγRIIIa extracellular domain with C-terminal His tag (human, UniProt P08637 17-208).
T4 construct: extracellular domain; also called FcgRIIIa; 3a; not shown: His tag attached to the C terminus
T4 sequence (P08637 17-208): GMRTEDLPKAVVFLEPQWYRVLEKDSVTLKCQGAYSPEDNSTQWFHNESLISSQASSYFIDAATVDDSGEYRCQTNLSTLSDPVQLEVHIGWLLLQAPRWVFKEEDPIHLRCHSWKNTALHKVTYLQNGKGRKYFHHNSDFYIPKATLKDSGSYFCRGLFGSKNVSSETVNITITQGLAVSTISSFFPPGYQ
Kind of assay: SPR (Biacore); He/Con_3a divided by He/Con_2b (FcγRIIIa over FcγRIIb). The procedure: (§1) The heterodimerized antibodies He Abs in which one of the H chains was introduced with an alteration were assayed for their binding activities to each activating FcγR and inhibitory FcγR according to the method described in Example 4. […] The activating FcγRs in FIGS. 26, 27, 28, and 29 are FcγRIa, FcγRIIa (R), FcγRIIa (H), and FcγRIIIa, respectively.
(§2) Analysis of interaction between objective antibody and the FcγR was carried out using Biacore T100 (GE Healthcare). HBS-EP+ (GE Healthcare) was used as the running buffer, and the measurement temperature was set to 25° C. Chips produced by immobilizing the antigen peptide by the amine coupling method to a Series S Sencor Chip CM5 (GE Healthcare), or alternatively, chips produced by allowing preliminarily biotinylated antigen peptides to interact with and immobilize onto a Series S Sensor Chip SA (certified) (GE Healthcare) were used. Antibodies of interest were captured onto an antigen peptide-immobilized chip, and allowed to interact to each FcγR diluted with running buffer. To regenerate and repeatedly use the chip, the antibodies captured on the chip were washed off by reacting 10 mM glycine-HCl, pH 1.5.
B1 registered a He_3a/2b of 1.33 ratio.

With B2, the He_3a/2b worked out at 1.4 ratio.

B3 displayed a He_3a/2b of 2.02 ratio.

Consider B4, for which the He_3a/2b was 1.38 ratio.

B5 returned a He_3a/2b of 1.72 ratio.

Take B6: the He_3a/2b is 1.52 ratio.

The next assay deals with T4, FcγRIIIa extracellular domain with …. In words: SPR (Biacore), antibody captured, FcγR as analyte; binding activity relative to control heterodimerized antibody. The procedure: as §1, §2
As for B1, the He/Con_3a was 51.2 % of GpH7-A5/GpH7-B3/GpL16-k0 (=100).

As to B2, the He/Con_3a was 56.5 % of GpH7-A5/GpH7-B3/GpL16-k0 (=100).

B3: the He/Con_3a was 41 % of GpH7-A5/GpH7-B3/GpL16-k0 (=100).

B4: the He/Con_3a was 66.3 % of GpH7-A5/GpH7-B3/GpL16-k0 (=100).

As for B5, the He/Con_3a is 43.2 % of GpH7-A5/GpH7-B3/GpL16-k0 (=100).

Regarding B6, the He/Con_3a was 60.3 % of GpH7-A5/GpH7-B3/GpL16-k0 (=100).

A further assay addresses T1, FcγRIIb extracellular domain with …. The assay is described as above. The procedure:
as §1, §2
In the case of B1, the He/Con_2b was 38.5 % of GpH7-A5/GpH7-B3/GpL16-k0 (=100).

Regarding B2, the He/Con_2b was 40.3 % of GpH7-A5/GpH7-B3/GpL16-k0 (=100).

As for B3, the He/Con_2b was 20.3 % of GpH7-A5/GpH7-B3/GpL16-k0 (=100).

As to B4, the He/Con_2b was 48.2 % of GpH7-A5/GpH7-B3/GpL16-k0 (=100).

For the molecule B5, the He/Con_2b was 25.2 % of GpH7-A5/GpH7-B3/GpL16-k0 (=100).

As to B6, the He/Con_2b is 39.5 % of GpH7-A5/GpH7-B3/GpL16-k0 (=100).

A further assay has as its target T2, FcγRIIa R (FcγRIIa allotype with Arg at …). Kind of assay: SPR (Biacore); He/Con_2aR divided by He/Con_2b, binding to FcγRIIa R against binding to FcγRIIb. The procedure: as §1, §2
As for B7, the “He_2aR/2b (IIaR/IIb)” value stood at 1.24 ratio.

For B8, the “He_2aR/2b (IIaR/IIb)” value is 1.37 ratio.

In the case of B9, the “He_2aR/2b (IIaR/IIb)” value was 1.3 ratio.

Consider B10, for which the “He_2aR/2b (IIaR/IIb)” value turned out to be 1.36 ratio.

Regarding B11, the “He_2aR/2b (IIaR/IIb)” value came to 1.21 ratio.

For the molecule B12, the “He_2aR/2b (IIaR/IIb)” value worked out at 1.32 ratio.

B13: the “He_2aR/2b (IIaR/IIb)” value came out at 1.72 ratio.

Take B14: the “He_2aR/2b (IIaR/IIb)” value amounted to 1.23 ratio.

Another assay shares this target. Kind of assay: SPR (Biacore), antibody captured, FcγR analyte; vs GpH7-A5/GpH7-B3/GpL16-k0 = 100.
Consider B7, for which the He/Con_2aR is 75.1 relative (HeCon Ab = 100).

For the molecule B8, the He/Con_2aR was 48.5 relative (HeCon Ab = 100).

Consider B9, for which the He/Con_2aR is 60.7 relative (HeCon Ab = 100).

Regarding B10, the He/Con_2aR was 65.3 relative (HeCon Ab = 100).

As to B11, the He/Con_2aR is 66.5 relative (HeCon Ab = 100).

As for B12, the He/Con_2aR is 56.2 relative (HeCon Ab = 100).

As to B13, the He/Con_2aR is 10.8 relative (HeCon Ab = 100).

On to B14, for which the He/Con_2aR was 94.8 relative (HeCon Ab = 100).

A further assay deals with T3, FcγRIIb, extracellular domain with …. Described as above.
Take B7: the He/Con_2b was 60.3 relative (HeCon Ab = 100).

Take B8: the He/Con_2b was 35.4 relative (HeCon Ab = 100).

Regarding B9, the He/Con_2b is 46.8 relative (HeCon Ab = 100).

On to B10, for which the He/Con_2b is 48.2 relative (HeCon Ab = 100).

B11: the He/Con_2b was 54.9 relative (HeCon Ab = 100).

B12: the He/Con_2b is 42.6 relative (HeCon Ab = 100).

As to B13, the He/Con_2b was 6.3 relative (HeCon Ab = 100).

As for B14, the He/Con_2b was 76.9 relative (HeCon Ab = 100).
